Measured values from paper PMC10112281.
Read-outs that look alike come from different tables or passages of the source. Where no end group is shown, it is not given here.

Experiments:
[1] = target: FIP200 CLAW domain (Homo sapiens) (UniProt Q8TDY2); conditions: cited from earlier work
[2] = target: FIP200 CLAW domain (Homo sapiens) (UniProt Q8TDY2); conditions: cited from earlier work; remark: listed apart in the source
[3] = target: recombinant His6-TEV-FIP200-CLAW domain; assay: fluorescence polarisation
[4] = target: T1, FITC-labeled TNIP1 FIR peptide, pS122; assay: fluorescence polarisation
T1 chain: SSGTSSEFEVVTPEE

[5] = target: T2, FITC-labeled TNIP1 FIR peptide, pS123; assay: fluorescence polarisation
T2 chain: SSGTSSEFEVVTPEE

[6] = target: T3, FITC-labeled TNIP1 FIR peptide, unmodified; assay: fluorescence polarisation
T3 chain: SSGTSSEFEVVTPEE

**Q.** For OPTN (from UniProt Q96CV9), which Kd [1] is on record?
**A.** 306 µM

**Q.** Which Kd [2] does the source give for “OPTN phosphorylated (from UniProt Q96CV9)” here?
**A.** 11.5 µM

**Q.** For SSGTSSEFEVVTPEE (also: phosphoserine pS123, place not mapped) [unlabeled TNIP1 pS123 peptide], which IC50 [3] is on record?
**A.** 70.2 µM

B1: recombinant His6-TEV-FIP200-CLAW domain (domain or fragment)
chain: SRHSEKIAIRDFQVGDLVLIILDERHDNYVLFTVSPTLYFLHSESLPALDLKPGEGASGASRRPWVLGKVMEKEYCQAKKAQNRFKVPLGTKFYRVKAVSWNKKV
modifications: not checked
**Q.** With B1 as the molecule, how does the Kd [4] read?
**A.** 9.7 µM

**Q.** What about the Kd [5] of the same molecule?
**A.** 3.27 µM

**Q.** And the Kd [6]?
**A.** 46 µM
